Experimental data reported in publication PMC4130151.

Target: Fibronectin (UniProt P02751)
Assay: SPR; BIAcore T100; FN covalently immobilised on CM5 chip; EF-Tu 0-10.0 μM injected in 10 mM HEPES, 150 mM NaCl, 3 mM EDTA, 0.005% P20, pH 7.4, 30 μL/min, 25°C; KD from equilibrium

Chain of UniProt P02751 (P02751 32-2477): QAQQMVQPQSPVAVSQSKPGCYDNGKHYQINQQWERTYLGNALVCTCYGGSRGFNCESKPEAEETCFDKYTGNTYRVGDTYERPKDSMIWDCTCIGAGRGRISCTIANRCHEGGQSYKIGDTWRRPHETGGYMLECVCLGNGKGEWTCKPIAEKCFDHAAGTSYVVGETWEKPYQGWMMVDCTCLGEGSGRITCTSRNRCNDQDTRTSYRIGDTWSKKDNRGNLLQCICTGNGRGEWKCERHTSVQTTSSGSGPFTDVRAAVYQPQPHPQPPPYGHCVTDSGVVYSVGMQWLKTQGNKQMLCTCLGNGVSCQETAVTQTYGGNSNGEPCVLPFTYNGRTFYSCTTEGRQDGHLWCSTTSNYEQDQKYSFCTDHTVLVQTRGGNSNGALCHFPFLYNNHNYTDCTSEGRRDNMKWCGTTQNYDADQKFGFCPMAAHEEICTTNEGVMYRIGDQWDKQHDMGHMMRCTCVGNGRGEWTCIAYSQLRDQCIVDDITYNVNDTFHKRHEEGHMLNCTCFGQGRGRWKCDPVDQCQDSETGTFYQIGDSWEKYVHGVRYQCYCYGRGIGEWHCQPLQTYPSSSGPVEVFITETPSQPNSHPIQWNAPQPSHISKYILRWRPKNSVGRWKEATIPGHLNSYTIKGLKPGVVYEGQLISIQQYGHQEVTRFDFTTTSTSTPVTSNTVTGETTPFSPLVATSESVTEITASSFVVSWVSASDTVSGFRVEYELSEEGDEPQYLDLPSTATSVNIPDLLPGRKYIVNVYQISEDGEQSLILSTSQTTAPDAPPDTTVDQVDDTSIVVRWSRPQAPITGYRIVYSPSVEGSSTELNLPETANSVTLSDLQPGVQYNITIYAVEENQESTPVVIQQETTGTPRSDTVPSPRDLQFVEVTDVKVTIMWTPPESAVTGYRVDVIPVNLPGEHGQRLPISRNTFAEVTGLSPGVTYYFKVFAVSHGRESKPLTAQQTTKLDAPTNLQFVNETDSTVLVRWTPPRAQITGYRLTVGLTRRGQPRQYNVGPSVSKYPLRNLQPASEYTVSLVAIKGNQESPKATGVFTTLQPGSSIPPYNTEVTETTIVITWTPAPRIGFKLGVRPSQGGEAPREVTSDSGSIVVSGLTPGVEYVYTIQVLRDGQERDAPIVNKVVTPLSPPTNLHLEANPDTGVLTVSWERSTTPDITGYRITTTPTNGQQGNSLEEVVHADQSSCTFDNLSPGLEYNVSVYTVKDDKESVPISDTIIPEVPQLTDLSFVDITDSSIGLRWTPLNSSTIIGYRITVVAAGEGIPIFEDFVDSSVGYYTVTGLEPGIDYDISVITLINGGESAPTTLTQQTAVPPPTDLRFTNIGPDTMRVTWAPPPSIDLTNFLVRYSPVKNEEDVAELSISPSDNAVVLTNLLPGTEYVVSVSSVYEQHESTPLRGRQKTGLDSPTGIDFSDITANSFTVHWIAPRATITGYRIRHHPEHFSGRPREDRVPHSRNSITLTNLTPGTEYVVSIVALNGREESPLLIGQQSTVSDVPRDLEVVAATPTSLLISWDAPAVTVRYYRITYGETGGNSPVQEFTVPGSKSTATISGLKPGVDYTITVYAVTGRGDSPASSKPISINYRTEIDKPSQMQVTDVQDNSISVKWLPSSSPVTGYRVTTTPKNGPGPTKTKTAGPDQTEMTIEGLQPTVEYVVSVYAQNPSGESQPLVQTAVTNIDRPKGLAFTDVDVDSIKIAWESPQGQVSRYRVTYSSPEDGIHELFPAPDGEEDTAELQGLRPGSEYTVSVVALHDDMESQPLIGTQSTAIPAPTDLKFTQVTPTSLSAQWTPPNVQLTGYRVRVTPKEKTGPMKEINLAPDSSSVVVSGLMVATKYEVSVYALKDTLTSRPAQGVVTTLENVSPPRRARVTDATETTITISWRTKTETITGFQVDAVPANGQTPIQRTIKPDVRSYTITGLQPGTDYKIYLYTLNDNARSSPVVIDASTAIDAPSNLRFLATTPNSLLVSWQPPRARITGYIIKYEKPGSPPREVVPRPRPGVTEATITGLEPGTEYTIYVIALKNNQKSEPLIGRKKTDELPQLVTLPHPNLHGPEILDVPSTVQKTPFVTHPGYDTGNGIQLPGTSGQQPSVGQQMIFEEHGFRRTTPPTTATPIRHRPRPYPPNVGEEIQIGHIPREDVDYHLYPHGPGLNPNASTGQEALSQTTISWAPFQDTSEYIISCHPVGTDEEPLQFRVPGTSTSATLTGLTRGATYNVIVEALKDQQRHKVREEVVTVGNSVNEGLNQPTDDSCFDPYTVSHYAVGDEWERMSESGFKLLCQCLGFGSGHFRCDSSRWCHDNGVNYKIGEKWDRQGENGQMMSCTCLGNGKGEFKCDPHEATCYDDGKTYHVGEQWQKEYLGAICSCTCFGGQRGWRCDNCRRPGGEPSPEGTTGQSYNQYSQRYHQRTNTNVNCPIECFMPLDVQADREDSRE

## Mycobacterium avium subsp. paratuberculosis elongation factor Tu (from UniProt Q73SD1 1-396) (natural protein)
  Kd: 3.1 µM
